The values that follow come from article PMC13397619.

First the molecules themselves.
B1: NLV3 TCR beta chain (CDR3β only) (parent)
chain: ASSPTGGSPSPLH
partner: NLCPMVATV

The first test covers variants of B1. As to the kind of experiment: T-Switch: Jurkat TCRβ−/− cells expressing a CDR3 saturation-mutagenesis library, stained with two peptide-HLA-A*02:01 tetramers (original and novel peptide) plus anti-CD3, FACS-sorted into four gates, gDNA sequenced. The note with it: with HLA-A*02:01 with peptide … (NLV 2-1, the novel peptide), tetramers 1 µg/mL, 30 min on ice, SP, DP and SW gates expanded about 10 days between rounds ('two to three rounds of selection' in the Methods), gate SW: higher = more of the variant in the gate that binds the novel peptide and not the original one = switched binding. Fold enrichment of the CDR3 variant in one FACS gate of a two-tetramer stain, unresolved parent, parent is a CDR3 fragment, scale: fold enrichment, numbering: sequential-on-construct, sequence starts at 1.
Turning to […] (CDR3 as printed); G7I derived by comparing it with the table's wild-type CDR3 ASSPTGGSPSPLH, the enrichment stood at 0.

With […] (CDR3 as printed); S3Y derived by comparing it with the table's wild-type CDR3 ASSPTGGSPSPLH, the enrichment amounted to 0.

On to […] (CDR3 as printed); G6H derived by comparing it with the table's wild-type CDR3 ASSPTGGSPSPLH, for which the enrichment stood at 0.

For […] (CDR3 as printed); S10Q derived by comparing it with the table's wild-type CDR3 ASSPTGGSPSPLH, the enrichment is 0.

Regarding […] (CDR3 as printed); A1V derived by comparing it with the table's wild-type CDR3 ASSPTGGSPSPLH, the enrichment came out at 0.

Turning to […] (CDR3 as printed); P11H derived by comparing it with the table's wild-type CDR3 ASSPTGGSPSPLH, the enrichment amounted to 0.

As to […] (CDR3 as printed); P9M derived by comparing it with the table's wild-type CDR3 ASSPTGGSPSPLH, the enrichment was found to be 0.

Turning to […] (CDR3 as printed); S8I derived by comparing it with the table's wild-type CDR3 ASSPTGGSPSPLH, the enrichment is 0.

Turning to […] (CDR3 as printed); H13I derived by comparing it with the table's wild-type CDR3 ASSPTGGSPSPLH, the enrichment was 0.

Regarding […] (CDR3 as printed); S10T derived by comparing it with the table's wild-type CDR3 ASSPTGGSPSPLH, the enrichment is 0.

Regarding […] (CDR3 as printed); G6K derived by comparing it with the table's wild-type CDR3 ASSPTGGSPSPLH, the enrichment was determined as 0.

On to […] (CDR3 as printed); A1P derived by comparing it with the table's wild-type CDR3 ASSPTGGSPSPLH, for which the enrichment was determined as 0.

As to […] (CDR3 as printed); H13F derived by comparing it with the table's wild-type CDR3 ASSPTGGSPSPLH, the enrichment turned out to be 0.

Turning to […] (CDR3 as printed); G6S derived by comparing it with the table's wild-type CDR3 ASSPTGGSPSPLH, the enrichment is 0.

As to […] (CDR3 as printed); S2Q derived by comparing it with the table's wild-type CDR3 ASSPTGGSPSPLH, the enrichment amounted to 0.

On to […] (CDR3 as printed); P11F derived by comparing it with the table's wild-type CDR3 ASSPTGGSPSPLH, for which the enrichment amounted to 0.

In the case of […] (CDR3 as printed); A1Q derived by comparing it with the table's wild-type CDR3 ASSPTGGSPSPLH, the enrichment was found to be 0.

Regarding […] (CDR3 as printed); A1R derived by comparing it with the table's wild-type CDR3 ASSPTGGSPSPLH, the enrichment was 0.

As for […] (CDR3 as printed); G7R derived by comparing it with the table's wild-type CDR3 ASSPTGGSPSPLH, the enrichment was found to be 0.

On to […] (CDR3 as printed); G7F derived by comparing it with the table's wild-type CDR3 ASSPTGGSPSPLH, for which the enrichment amounted to 0.

Turning to […] (CDR3 as printed); H13P derived by comparing it with the table's wild-type CDR3 ASSPTGGSPSPLH, the enrichment worked out at 0.

As for […] (CDR3 as printed); S8C derived by comparing it with the table's wild-type CDR3 ASSPTGGSPSPLH, the enrichment was 0.

For […] (CDR3 as printed); A1S derived by comparing it with the table's wild-type CDR3 ASSPTGGSPSPLH, the enrichment is 0.

As for […] (CDR3 as printed); H13K derived by comparing it with the table's wild-type CDR3 ASSPTGGSPSPLH, the enrichment amounted to 0.

[…] (CDR3 as printed); L12H derived by comparing it with the table's wild-type CDR3 ASSPTGGSPSPLH: the enrichment stood at 0.

In the case of […] (CDR3 as printed); H13Q derived by comparing it with the table's wild-type CDR3 ASSPTGGSPSPLH, the enrichment is 0.

Turning to […] (CDR3 as printed); S2G derived by comparing it with the table's wild-type CDR3 ASSPTGGSPSPLH, the enrichment worked out at 0.

Consider […] (CDR3 as printed); S2H derived by comparing it with the table's wild-type CDR3 ASSPTGGSPSPLH, for which the enrichment is 0.

For the variant […] (CDR3 as printed); G7N derived by comparing it with the table's wild-type CDR3 ASSPTGGSPSPLH, the enrichment amounted to 0.

As for […] (CDR3 as printed); L12M derived by comparing it with the table's wild-type CDR3 ASSPTGGSPSPLH, the enrichment came to 0.

[…] (CDR3 as printed); P11N derived by comparing it with the table's wild-type CDR3 ASSPTGGSPSPLH: the enrichment came out at 0.

Regarding […] (CDR3 as printed); S2Y derived by comparing it with the table's wild-type CDR3 ASSPTGGSPSPLH, the enrichment was found to be 0.

Take […] (CDR3 as printed); P11I derived by comparing it with the table's wild-type CDR3 ASSPTGGSPSPLH: the enrichment is 0.

In the case of […] (CDR3 as printed); S8F derived by comparing it with the table's wild-type CDR3 ASSPTGGSPSPLH, the enrichment was 0.

For the variant […] (CDR3 as printed); T5G derived by comparing it with the table's wild-type CDR3 ASSPTGGSPSPLH, the enrichment is 0.

Take […] (CDR3 as printed); S2K derived by comparing it with the table's wild-type CDR3 ASSPTGGSPSPLH: the enrichment was 0.

On to […] (CDR3 as printed); P11R derived by comparing it with the table's wild-type CDR3 ASSPTGGSPSPLH, for which the enrichment is 0.

As for […] (CDR3 as printed); L12K derived by comparing it with the table's wild-type CDR3 ASSPTGGSPSPLH, the enrichment turned out to be 0.

In the case of […] (CDR3 as printed); S3G derived by comparing it with the table's wild-type CDR3 ASSPTGGSPSPLH, the enrichment came out at 0.

In the case of […] (CDR3 as printed); G6A derived by comparing it with the table's wild-type CDR3 ASSPTGGSPSPLH, the enrichment amounted to 0.

Turning to […] (CDR3 as printed); P11V derived by comparing it with the table's wild-type CDR3 ASSPTGGSPSPLH, the enrichment was determined as 0.

Still in this test, the particulars now being: with HLA-A*02:01 with peptide … (NLV 2-1, the novel peptide), tetramers 1 µg/mL, 30 min on ice, SP, DP and SW gates expanded about 10 days between rounds ('two to three rounds of selection' in the Methods), gate SW: higher = more of the variant in the gate that binds the novel peptide and not the original one = switched binding. Fold enrichment of the CDR3 variant in one FACS gate of a two-tetramer stain, unresolved parent, parent is a CDR3 fragment, zero in all gates, scale: fold enrichment, numbering: sequential-on-construct, ….
With […] (CDR3 as printed); S2L derived by comparing it with the table's wild-type CDR3 ASSPTGGSPSPLH, the enrichment is 0.
